# Assay results taken from patent US20060193821, “Aptamers to the human IL-12 cytokine family and their use as autoimmune disease therapeutics” (published 2006).
# Where a chain is given by its changes, count along the chain named.
# T1: IL-23 (mouse, p19/p40 heterodimer) (Mus musculus, UniProt Q9EQ14;P43432 SEQ:22-196,SEQ:23-335)
# T1 sequence 1: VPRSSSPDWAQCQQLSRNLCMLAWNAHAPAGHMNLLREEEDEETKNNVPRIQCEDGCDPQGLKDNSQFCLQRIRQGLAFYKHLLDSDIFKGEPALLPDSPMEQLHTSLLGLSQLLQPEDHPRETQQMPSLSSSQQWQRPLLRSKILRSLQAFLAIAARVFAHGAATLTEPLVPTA
# T1 sequence 2: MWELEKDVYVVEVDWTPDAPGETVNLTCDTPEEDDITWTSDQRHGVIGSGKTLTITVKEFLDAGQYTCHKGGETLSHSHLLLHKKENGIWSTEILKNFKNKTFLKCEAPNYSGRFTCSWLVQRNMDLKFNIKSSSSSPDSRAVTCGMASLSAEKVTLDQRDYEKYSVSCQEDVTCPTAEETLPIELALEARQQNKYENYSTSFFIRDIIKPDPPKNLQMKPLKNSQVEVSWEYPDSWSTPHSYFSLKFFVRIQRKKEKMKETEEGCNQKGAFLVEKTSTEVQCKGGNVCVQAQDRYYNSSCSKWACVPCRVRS
# T2: IL-12 (mouse, p35/p40 heterodimer) (Mus musculus, UniProt P43431;P43432 SEQ:23-215,SEQ:23-335)
# T2 sequence 1: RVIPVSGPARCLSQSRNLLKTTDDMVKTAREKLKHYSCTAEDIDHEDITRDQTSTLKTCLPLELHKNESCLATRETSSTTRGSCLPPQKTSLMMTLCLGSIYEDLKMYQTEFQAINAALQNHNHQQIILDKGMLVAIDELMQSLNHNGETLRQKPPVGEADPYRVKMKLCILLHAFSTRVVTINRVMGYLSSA
# T2 sequence 2: T1 sequence 2
# B1: ARC614 (mixed)
# RNA: GGGAGAGGAGAGAACGUUCUACAAGGCGGUACGGGGAGUGUGGGUUGGGGCCGGUCGAUCGAUCGAUCAUCGAUG
# modifications: 2'-deoxy A and G, 2'-OMe C and U (dRmY)
# B2: ARC632 (mixed)
# RNA: GGGAGAGGAGAGAACGUUCUACAAUUGCAGGUGGUGCCGGGGGUUGGGGGCGGGUCGAUCGAUCGAUCAUCGAUG
# modifications: 2'-deoxy A and G, 2'-OMe C and U (dRmY)
# B3: ARC616 (mixed)
# RNA: GGGAGAGGAGAGAACGUUCUACGAUAUAGGCGGUACGGGGGGAGUGGGCUGGGGUCGAUCGAUCGAUCAUCGAUG
# modifications: 2'-deoxy A and G, 2'-OMe C and U (dRmY)
# B4: ARC627 (mixed)
# RNA: GGGAGAGGAGAGAACGUUCUACAGGCAAGUAAUUGGGGAGUGCGGGCGGGGUGUCGAUCGAUCGAUCAUCGAUG
# modifications: 2'-deoxy A and G, 2'-OMe C and U (dRmY)
# B5: ARC626 (mixed)
# RNA: B4 RNA with U52G
# modifications: 2'-deoxy A and G, 2'-OMe C and U (dRmY)
# B6: ARC611 (mixed)
# RNA: GGGAGAGGAGAGAACGUUCUACAGGCAAGGCAAUUGGGGAGUGUGGGUGGGGGGUCGAUCGAUCGAUCAUCGAUG
# modifications: 2'-deoxy A and G, 2'-OMe C and U (dRmY)
# B7: ARC612 (mixed)
# RNA: GGGAGAGGAGAGAACGUUCUACAGGCAAGUAAUUGGGGAGUGCGGGCGGGGGGGUCGAUCGAUCGAUCAUCGAUG
# modifications: 2'-deoxy A and G, 2'-OMe C and U (dRmY)
# B8: ARC621 (mixed)
# RNA: GGGAGAGGAGAGAACGUUCUACAGGCGGUUACGGGGGAUGCGGGUGGGACAGGUCGAUCGAUCGAUCAUCGAUG
# modifications: 2'-deoxy A and G, 2'-OMe C and U (dRmY)
# B9: ARC643 (mixed)
# RNA: GGGAGAGGAGAGAACGUUCUACAGGCCGAUGAGGGGGAGCAGUGGGUGGGGGGUCGAUCGAUCGAUCAUCGAUG
# modifications: deoxy A,G; 2'-OMe C,U
# B10: ARC628 (mixed)
# RNA: GGGAGAGGAGAGAACGUUCUACAGGCAAGGCAAUUGGGGAGCGUGGGUGGGGGGGUCGAUCGAUCGAUCAUCGAUG
# modifications: deoxy A,G; 2'-OMe C,U
# B11: ARC645 (mixed)
# RNA: GGGAGAGGAGAGAACGUUCUACAGGUAGGCAAGAUAUUGGGGGAAGCGGGUGGGGUCGAUCGAUCGAUCAUCGAUG
# modifications: deoxy A,G; 2'-OMe C,U
# B12: ARC635 (mixed)
# RNA: GGGAGAGGAGAGAACGUUCUACAGGCUCAAAAGAGGGGGAUGUGGGAGGGGGUCGAUCGAUCGAUCAUCGAUG
# modifications: deoxy A,G; 2'-OMe C,U
# B13: ARC642 (mixed)
# RNA: GGGAGAGGAGAGAACGUUCUACAGGCGCAGCCAGCGGGGAGUGAGGGUGGGGGUCGAUCGAUCGAUCAUCGAUG
# modifications: deoxy A,G; 2'-OMe C,U
# B14: ARC620 (mixed)
# RNA: B6 RNA with C26A, A32G, A33C, G37C, A40G, U42G, G46A, U48G, G50A
# modifications: deoxy A,G; 2'-OMe C,U
# B15: ARC646 (mixed)
# RNA: GGGAGAGGAGAGAACGUUCUACACAUGGCUCGAAAGAGGGGCGUGAGGGUGGGGUCGAUCGAUCGAUCAUCGAUG
# modifications: deoxy A,G; 2'-OMe C,U
# B16: ARC644 (mixed)
# RNA: GGGAGAGGAGAGAACGUUCUACUAGUGAGGCGGUAACGGGGGGUGAGGGUGGGGUCGAUCGAUCGAUCAUCGAUG
# modifications: deoxy A,G; 2'-OMe C,U
# B17: ARC1631 (ssRNA)
# RNA: GGAGCGCACUCAGCCACGCCUACAAUUCACUGUGAUAUAUCGAAUUAUAGCCCUGGUUUCGACCUCUCUGCUAGC
# modifications: 2'-F all C and U (rRfY)
# B18: ARC1628 (ssRNA)
# RNA: GGAGCGCACUCAGCCACAGGUGGCUUAAUACUGUAAAGACGUGCGCGCAGAGGGAUUUUCGACCUCUCUGCUAGC
# modifications: 2'-F all C and U (rRfY)
# B19: ARC1633 (ssRNA)
# RNA: GGAGCGCACUCAGCCACAGCUCGGUGGCUUAAUAUCUAUGUGAACGUGCGCAACAGCUUUCGACCUCUCUGCUAGC
# modifications: 2'-F all C and U (rRfY)
# B20: ARC1632 (ssRNA)
# RNA: GGAGCGCACUCAGCCACCGGCUUAAUAUCCAAUAGGAACGUUCGCUCUGAGCAGGCGUUUCGACCUCUCUGCUAGC
# modifications: 2'-F all C and U (rRfY)
# B21: ARC1629 (ssRNA)
# RNA: GGAGCGCACUCAGCCACCGUAAUUCACAAGGUCCCUGAGUGCAGGGUUGUAUGUUUGUUUCGACCUCUCUGCUAGC
# modifications: 2'-F all C and U (rRfY)
# B22: ARC1630 (ssRNA)
# RNA: GGAGCGCACUCAGCCACUCUACUCGAUAUAGUUUAUCGAGCCGGUGGUAGAUUAUGAUUUCGACCUCUCUGCUAGC
# modifications: 2'-F all C and U (rRfY)
# B23: ARC1634 (ssRNA)
# RNA: GGAGCGCACUCAGCCACCUUGGGCUUAAUACCUAUCGGAUGUGCGCCUAGCACGGAAUUUCGACCUCUCUGCUAGC
# modifications: 2'-F all C and U (rRfY)
# Target: T3, IL-23 (human, p19/p40 heterodimer) (Homo sapiens, UniProt Q9NPF7;P29460 SEQ:20-189,SEQ:23-328)
# Assay: filter; +tRNA
# Settings: tags: R&D Systems, carrier free
# T3 sequence (Q9NPF7 20-189, chain 1 of 2): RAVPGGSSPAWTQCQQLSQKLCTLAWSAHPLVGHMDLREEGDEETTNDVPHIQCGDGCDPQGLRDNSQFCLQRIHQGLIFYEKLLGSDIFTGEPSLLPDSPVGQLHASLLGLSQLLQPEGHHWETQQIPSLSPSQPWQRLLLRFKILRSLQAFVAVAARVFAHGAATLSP
# T3 sequence (P29460 23-328, chain 2 of 2): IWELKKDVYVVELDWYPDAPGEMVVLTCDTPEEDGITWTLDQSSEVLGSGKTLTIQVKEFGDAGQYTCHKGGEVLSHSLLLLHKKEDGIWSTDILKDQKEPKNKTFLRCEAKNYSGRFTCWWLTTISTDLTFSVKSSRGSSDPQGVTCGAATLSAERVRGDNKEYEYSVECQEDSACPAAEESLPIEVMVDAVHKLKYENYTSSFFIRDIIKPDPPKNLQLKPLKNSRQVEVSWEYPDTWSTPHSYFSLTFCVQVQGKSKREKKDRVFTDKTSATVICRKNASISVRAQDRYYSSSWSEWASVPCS
row,Binder,Kd
1,"CCAGGCAAGUAAUUGGGGAGUGCGGGCGGGGUGG (mixed, deoxy A,G; 2'-OMe C,U) [ARC980]",139 nM
2,"GGCAAGGUAAUUGGGGAGUGCGGGCUGGG (mixed, deoxy A,G; 2'-OMe C,U) [ARC893]",2860 nM
3,"GGCAAGGUAAUUGGGAAGUGUGGGCGGGG (mixed, deoxy A,G; 2'-OMe C,U) [ARC891]",177 nM
4,"GGCAAGGUAAUUGGGUAGUGAGGGCGGGG (mixed, deoxy A,G; 2'-OMe C,U) [ARC892]",255 nM

# Target: T3, IL-23 (human, p19/p40 heterodimer)
# Assay: filter; 1X PBS, tRNA, ssDNA, BSA, 30 min RT
# Settings: tags: R&D Systems, carrier free; label: 5'-32P; G4 (predicted)
# Protocol: (§1) The clones were 5′end labeled with γ-³²P ATP, and were assayed for both IL-23 and IL-12 binding in a 3-point dot blot screen (0 nM, 20 nM, and 100 nM h-IL-23; 0 nM, 20 nM, and 100 nM h-IL-12) (data not shown). […] KD values were determined by fitting an equation describing a 1:1 RNA:protein complex to the resulting data (fraction aptamer bound=amplitude*([IL-23]/(KD+[IL-23]))+background binding) (KaleidaGraph v. 3.51, Synergy Software). Results of protein binding characterization for the higher affinity clones are tabulated in Table 13, and corresponding clone sequences are listed in Table 12.
row,Binder,Kd
1,B1,3.1 nM
2,B2,19.1 nM
3,B3,13.1 nM
4,B4,7 nM
5,B5,10.1 nM
6,B6,21.3 nM
7,B7,5.8 nM
8,B8,28.8 nM

# Target: T4, IL-12 (human, p35/p40 heterodimer) (Homo sapiens, UniProt P29459;P29460 SEQ:57-253,SEQ:23-328)
# Assay: filter; 1X PBS, tRNA, ssDNA, BSA, 30 min RT
# Settings: label: 5'-32P; G4 (predicted)
# Protocol: as §1
# T4 sequence (P29459 23-219, chain 1 of 2): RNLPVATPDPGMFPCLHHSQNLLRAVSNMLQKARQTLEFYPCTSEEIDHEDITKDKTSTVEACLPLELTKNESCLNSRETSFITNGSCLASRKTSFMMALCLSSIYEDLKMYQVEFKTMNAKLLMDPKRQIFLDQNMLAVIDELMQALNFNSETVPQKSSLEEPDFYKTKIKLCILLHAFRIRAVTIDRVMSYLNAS
# T4 sequence (P29460 23-328, chain 2 of 2): as the sequence (P29460 23-328, chain 2 of 2) above
row,Binder,Kd
1,B1,54.4 nM
2,B2,63.9 nM
3,B3,52.1 nM
4,B4,79.5 nM
5,B5,69.8 nM
6,B6,123 nM
7,B7,41.7 nM
8,B8,112 nM

# Target: T3, IL-23 (human, p19/p40 heterodimer)
# Assay: filter; PBS, tRNA, ssDNA, BSA
# Settings: tags: R&D Systems, carrier free
# Protocol: as §1
row,Binder,Kd
1,B9,71.6 nM
2,B10,57.8 nM
3,B11,33.5 nM
4,B12,172 nM
5,B13,37.2 nM
6,B14,44.8 nM
7,B15,208 nM
8,B16,34.5 nM

# Target: T4, IL-12 (human, p35/p40 heterodimer)
# Assay: filter; PBS, tRNA, ssDNA, BSA
# Settings: not given
# Protocol: as §1
row,Binder,Kd
1,B9,309 nM
2,B10,146 nM
3,B11,137 nM
4,B12,431 nM
5,B13,188 nM
6,B14,179 nM
7,B15,383 nM
8,B16,193 nM

# Target: T1, IL-23 (mouse, p19/p40 heterodimer)
# Assay: filter; 1X PBS, 0.1 mg/mL BSA, 30 min RT
# Settings: tags: isolated in-house; label: 32P
# Protocol: (§2) rRfY mIL-23 Protein Binding Analysis: Dot blot binding assays were performed throughout the selections to monitor the protein binding affinity of the pools as previously described. When a significant level of binding of RNA in the presence of mIL-23 was observed, the pools were cloned using a TOPO TA cloning kit (Invitrogen, Carlsbad, Calif.) according to the manufacturer's instructions. For both mIL-23 selections, the Round 7 pool templates were cloned, and 16 individual clones from each selection were assayed using an 8-point mIL-23 titration. Seven of the 32 total clones screened had specific binding curves and are listed below in Table 16. […] Clones with high affinity to mIL-23 were subsequently screened for protein binding against mouse IL-12, human IL-23 and human IL-12 in the same manner.
row,Binder,Kd
1,B17,33 nM
2,B18,2 nM
3,B19,17 nM
4,B20,13 nM
5,B21,34 nM
6,B22,14 nM
7,B23,3 nM

# Target: T2, IL-12 (mouse, p35/p40 heterodimer)
# Assay: filter; 1X PBS, 0.1 mg/mL BSA, 30 min RT
# Settings: label: 32P
# Protocol: as §2
row,Binder,Kd
1,B17,72 nM
2,B18,6 nM
3,B19,44 nM
4,B20,16 nM
5,B21,103 nM
6,B22,18 nM
7,B23,29 nM

# Target: T3, IL-23 (human, p19/p40 heterodimer)
# Assay: filter; 1X PBS, 0.1 mg/mL BSA, 30 min RT
# Settings: tags: R&D Systems, carrier free; label: 32P
# Protocol: as §2
row,Binder,Kd
1,B17,39 nM
2,B18,52 nM
3,B19,79 nM
4,B20,91 nM
5,B21,31 nM
6,B22,65 nM
7,B23,39 nM

# Target: T4, IL-12 (human, p35/p40 heterodimer)
# Assay: filter; 1X PBS, 0.1 mg/mL BSA, 30 min RT
# Settings: label: 32P
# Protocol: as §2
row,Binder,Kd
1,B17,69 nM
2,B18,161 nM
3,B19,195 nM
4,B20,186 nM
5,B21,75 nM
6,B22,239 nM
7,B23,63 nM
